Measurements from paper PMC7577971, “Antibody-mediated disruption of the SARS-CoV-2 spike glycoprotein” (Nature Communications, 2020).

Molecular target: T1, stabilised, trimeric ectodomain of the SARS-CoV-2 spike glycoprotein (FUR 2P) (SARS-CoV-2, Wuhan-Hu-1 (YP_009724390.1), R682S | R685S | K986P | V987P)
T1 construct: also called S trimer; trimeric spike
Assay: BLI
Conditions: both partners purified

B1: CR3022 Fab (tag cleaved with TEV, as used in binding assays) (Fab, V domains shown)
VH: QMQLVQSGTEVKKPGESLKISCKGSGYGFITYWIGWVRQMPGKGLEWMGIIYPGDSETRYSPSFQGQVTISADKSINTAYLQWSSLKASDTAIYYCAGGSGISTPMDVWGQGTTVTVAS
VL: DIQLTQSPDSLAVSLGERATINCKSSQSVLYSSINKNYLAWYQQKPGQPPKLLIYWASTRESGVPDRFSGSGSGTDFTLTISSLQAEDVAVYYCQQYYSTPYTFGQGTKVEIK
Kd: 80 nM
